Results reported in article PMC6420074 (Nature metabolism, 2019).

T1: extracellular domain of Tfr2 (Tfr2-ECD), recombinant His-MBP-c3-Tfr2-ECD (murine, UniProt Q9JKX3 103-798)
T1 sequence: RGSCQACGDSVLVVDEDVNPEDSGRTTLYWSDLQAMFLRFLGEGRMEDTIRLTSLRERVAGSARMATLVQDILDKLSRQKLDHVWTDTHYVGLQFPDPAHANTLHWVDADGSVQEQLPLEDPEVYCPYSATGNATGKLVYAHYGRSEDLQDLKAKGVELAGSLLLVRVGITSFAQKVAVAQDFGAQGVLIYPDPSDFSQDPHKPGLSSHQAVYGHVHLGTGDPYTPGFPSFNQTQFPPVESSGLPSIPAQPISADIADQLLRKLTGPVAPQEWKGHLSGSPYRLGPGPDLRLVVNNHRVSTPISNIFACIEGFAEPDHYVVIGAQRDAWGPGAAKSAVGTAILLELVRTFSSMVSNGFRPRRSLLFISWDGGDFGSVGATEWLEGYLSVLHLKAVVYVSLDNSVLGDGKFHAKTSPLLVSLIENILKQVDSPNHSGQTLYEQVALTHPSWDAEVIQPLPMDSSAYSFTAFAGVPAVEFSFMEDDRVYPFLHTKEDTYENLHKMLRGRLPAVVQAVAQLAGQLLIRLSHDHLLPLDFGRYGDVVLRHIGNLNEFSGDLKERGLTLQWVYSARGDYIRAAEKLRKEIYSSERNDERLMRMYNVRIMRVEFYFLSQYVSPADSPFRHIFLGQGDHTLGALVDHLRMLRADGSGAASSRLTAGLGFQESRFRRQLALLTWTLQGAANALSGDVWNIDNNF


Assays:
[1] = biological target: T1, extracellular domain of Tfr2 …; test: SPR
[2] = biological target: T1, extracellular domain of Tfr2 …; test: SPR; remark: listed apart in the source

| Binder | Kd [1] | fold binding level against holo-Tf [2] |
| --- | --- | --- |
| BMP-4 (ligand) SPKHHSQRARKKNKNCRRHSLYVDFSDVGWNDWIVAPPGYQAFYCHGDCPFPLADHLNSTNHAIVQTLVNSVNSSIPKACCVPTELSAISMLYLDEYDKVVLKNYQEMVVEGCGCR | 409 ± 39 nM | – |
| BMP-2 (ligand) QAKHKQRKRLKSSCKRHPLYVDFSDVGWNDWIVAPPGYHAFYCHGECPFPLADHLNSTNHAIVQTLVNSVNSKIPKACCVPTELSAISMLYLDENEKVVLKNYQDMVVEGCGCR | 488 ± 37 nM | > 10 fold |
